Experimental data reported in the nanobody polyreactivity screen of Harvey et al. (2022).

test: yeast display, Sf9 membrane polyspecificity reagent, FACS + sequencing; frameworks hold sequencing errors
Summary of the method: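 Synthetic nanobody libraries on Saccharomyces cerevisiae BJ5465 were galactose-induced for 36–48 hours, stained 1 hour at 4 °C with 10% biotinylated, detergent-solubilized Sf9 membrane reagent and enriched on streptavidin microbeads. FACS then separated cells into low and high (top ~1%) gates by anti-HA (expression) and streptavidin (reagent binding) fluorescence. Genes were colony-PCR amplified, MiSeq 2 × 250 sequenced and CDR-length filtered. A clone's polyreactivity label is that of its gate of origin.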

Sequence	polyreactivity (PSR sort gate)
QVQLVESGGGLVQAGGSLRLSCAASGSTFDFNAMGWYRQAPRKERELVASISWDTGGTYADSVKGRFTISRDNAKNSFYLQMNSLKTEDTAVYFCAARPDYFIFDYWGQGTQVTVSS	low polyreactivity
QVQLVESGGGLVQAGGSLRLSCAASGSTFDGNAMGWYRQAPGKERELVAAITSGGSTNYADSVKGRFTISRDNAKNTDYLQMNSLKPEDTAVYYCAADTVSFSILYDYWGQGTQVTVSS	low polyreactivity
QVQLVESGGGLVQAGGSLRLSCAASGSTFDGNAMGWYRQAPGKERELVAAITYTTSSTYYADSVKGRFTISRDNAKNTVYLQMNSLKPEDTAVYYCAADASYLPYPLPGTEYEYWGQGTQVTVSS	low polyreactivity
QVQLVESGGGLVQAGGSLRLSCAASGSTFDGYAMGWYRQAPGKERELVAAISSSGTSTYYADSVKGRFTISRDNAKNTVYLQMNSLKPEDTAVYYCAGKGATQSWAGDYWGQGTQVTVSS	low polyreactivity
QVQLVESGGGLVQAGGSLRLSCAASGSTFDGYAMGWYRQAPGKERELVAAITVSVGSTYYADSVKGRFTISRDNAKNTVYLQMNSLIPEDTAVYYCAADYDYHYRYYYWGQGTQVTVSS	low polyreactivity
QVQLVESGGGLVQAGGSLRLSCAASGSTFDGYAMGWYRQAPGKERELVASISWDDVRTYYADSVKGRFTISRDNAKNTVYLQMNSLKPEDTAVYDCAKGDIEYFWSRIYGYWGQGTQVTVSS	low polyreactivity
QVQLVESGGGLVQAGGSLRLSCAASGSTFDGYVMGWYRQAPGKEREFVAAISWSGGSTYYADSVKGRFTISRDNAKYTVYLQMNRLKREDTAVYYCAARVRRQHGYWGQGTQVTVST	high polyreactivity
QVQLVESGGGLVQAGGSLRLSCAASGSTFDHYAMGWYRQAPGKERELVASITLSGGSTYYADSVKGRFTISRDNAKNTVYLQMNSLKPEDTAVYYCNVDYPFYQYGYYYNYNYWGQGTQVTVSS	low polyreactivity
QVQLVESGGGLVQAGGSLRLSCAASGSTFDIYAMGWYRQAPGKERELVAAISNSGDTYYADSVKGRFTISRDNAKNTVYLQMNSLKPEDTAVYYCNADFHDWFDYWGQGTQVTVSS	high polyreactivity
QVQLVESGGGLVQAGGSLRLSCAASGSTFDIYVMGWYRQAPGKEREFVAAITTTTGRTNYADSVKGRFTISRDNAKNTVYLQMNSLKPEDTAVYYCAAYVTWGKLWYGYWGQGTQVTVSS	high polyreactivity
QVQLVESGGGLVQAGGSLRLSCAASGSTFDIYVMGWYRQAPGKERELVAAISRVGNTSYADSVKGRFTISRDNAKNTVYLQMNSLNPEDTAVYYCAADAPSWYDRQYDYWGQGNQVTVSS	low polyreactivity
QVQLVESGGGLVQAGGSLRLSCAASGSTFDKYAMGWYRQAPGKERELVAAITWGGGSTYYADSVKGRFTISRDNAKNTVYLQMNSLKPEDTAVYYCAAEQGSSVLYDSWGQGTQVTVSS	low polyreactivity
QVQLVESGGGLVQAGGSLRLSCAASGSTFDKYAMGWYRQAPRKERELVAAITWGGGSTYYADSVKGRITISRDNAKNTVYLPMNSLKPEDTAVYYCAAEQRSSVLYDSWGQGTQVTVSS	low polyreactivity
QVQLVESGGGLVQAGGSLRLSCAASGSTFDKYSMGWYRQAPGKERELVAAITWGGGSTYYADSVKGRFTISRDNAKNTVYLQMNSLKPEDTAVYYCAAEQGSSVLYDSWGQGTQVTVSS	low polyreactivity
QVQLVESGGGLVQAGGSLRLSCAASGSTFDLYAMGWYRPAPGKERELVAAITSSGGRTYYADSVKGRFTISRDNAKNTVYLQMNSLKPEDTAVYYCAATSSGGYYDGYNYWGQGTQVTVSS	high polyreactivity
QVQLVESGGGLVQAGGSLRLSCAASGSTFDNYAMGWYRQAPGKERELVAAINSRGGRTYYADSVKGRFTISRDNAKNTVYLQMNSLKPEDTAVYYCAAVGATHRFDYWGQGTQVTVSS	high polyreactivity
QVQLVESGGGLVQAGGSLRLSCAASGSTFDPNDMGWYRPAPGKERQLVASITSRGGSTYYADSVKGRFTISRDNAKNTVYLQMNSLKPEDTAVYYCAAVGGATYSWNGYSWYPWHNYWGQGTQVTVSS	low polyreactivity
QVQLVESGGGLVQAGGSLRLSCAASGSTFDPYAMGWSRQAPGKEREMVAAISTSVGGTYYADSVKGRFTISRDYAKNTVNLQMNSLKPEDTAVYYCAVDYSDVQAYTSNEEDYWGQGTQVTVSS	low polyreactivity
QVQLVESGGGLVQAGGSLRLSCAASGSTFDQNVMGWYRQAPGKERELVATINFSGDSTYYADSVKGRFTISRDNAKNTVYLQMNSLKPEDTAVYYCAVDWGEYIDTSVKRDISYYWGQGTQVTVSS	low polyreactivity
QVQLVESGGGLVQAGGSLRLSCAASGSTFDRNVMGWYRQAPGKERELVAAISRVSSTNYADSVKGRFTFSRDNAKNTVYLLMNSLKPEDTAVYYCAADRAGSIMNYWGQGTQVTVSS	low polyreactivity
QVQLVESGGGLVQAGGSLRLSCAASGSTFDRYTLGWYRQAPGKERELVAGISNSGGSTYYADSVKGRFTISRDNAKNTVYLQMNSLKPEDTAVYYCAAAYSIRRILYYYWGQGTHVTVSS	high polyreactivity
QVQLVESGGGLVQAGGSLRLSCAASGSTFDSNGMGWYRQAPGKERELVADITYSDGRTYADSVKGRFTISRDNAKNTVYLQMNSLKPEDTAVYYCAVSDSVYAGFTSYDYWGQGTQVTVSS	low polyreactivity

Sequence	polyreactivity (PSR sort gate)
QVQLVESGGGLVQAGGSLRLSCAASGSTFDSNTMRWYRQAPGKETELVAAITVSGGSTHYADSVKGRFTISRDNAKNTVYLQMNSLKPEDTAVYYCNRRSYGYGAFSGYDYWGQGTQVTVSS	low polyreactivity
QVQLVESGGGLVQAGGSLRLSCAASGSTFDSNVMGWYRQAPGKERELVAAIDLSGGITYYADSVKGRFTISRDNAKNTVYLQMNSLKPEDTAVYYCATDEGYRYPHVDLTEVYYWGQGTQVTVSS	low polyreactivity
QVQLVESGGGLVQAGGSLRLSCAASGSTFDSYAMGWYRQAPGKEGELVAAITGGGDTNYADSVKGRFTISRDNAKNTVYLQMNSLKPEDTAVYYCAAYQRRGNYQMDYWGQGTQVTVSS	low polyreactivity
QVQLVESGGGLVQAGGSLRLSCAASGSTFDTNAMGWYRQAPGKDRELVAAITSGGNTYADSVKGRFTISRDNAKNTVYLQMNSLKPEDTAVYYCAAEDVYTGWYDYWGQGTQVTVSS	low polyreactivity
QVQLVESGGGLVQAGGSLRLSCAASGSTFDTNAMGWYRQAPGKERELVATITSIGGSTYADSVKGRFTISRDNAKNTVYLQMNSLKPEDNAVYYCATDYVEIDYYYDYWGQGTQVTVSS	low polyreactivity
QVQLVESGGGLVQAGGSLRLSCAASGSTFDTYAMGWYRPAPGKERELVAGMTRRGGRTYYADSVKGRFTISRDTAKNTVYLQKNSLKPEDTADYYCNAVPQRPVGKLDHWGQGTQVTVSS	high polyreactivity
QVQLVESGGGLVQAGGSLRLSCAASGSTFDVNTMGWYRQAPGKERELVAAIRLRGGSTYYADSVKGRFTISRDNAKNTVYLQMYSLKPEDTEVSYCAADYTLIYDYWGQGTQVTVSS	low polyreactivity
QVQLVESGGGLVQAGGSLRLSCAASGSTFDVYAMGWYIQAPGKERELVASIRWSGGSTNYADSVKGRFTISRDNAKNTVYLQMNSLKPEDTAVYYCNADVGTGFRPGQYDYWGQGTQVTLSS	low polyreactivity
QVQLVESGGGLVQAGGSLRLSCAASGSTFDVYDMGWYRQAPGKERELVASISWDGDRTYYADSVKGRFTISRDNAKNTVYLQMNSLKPEDTAVYYCAVDSASDTIYDYWGQGTQVTVSS	low polyreactivity
QVQLVESGGGLVQAGGSLRLSCAASGSTFDWYAMGWYRQAPGKEREFVAAIDQDEDSTYYADSVKGRFTISRDNAKNTVYLQMNSLKPEVTAVYYCAADHAWYSLFDYWGQGTQVTVSS	low polyreactivity
QVQLVESGGGLVQAGGSLRLSCAASGSTFDWYTMGWYRQATGKERELVADITSGGSTYYADSVKGRFTISRDNAKNTVYLQMNSLKPEDTAAYYCNAYLYTWRWAFDYWGQGTQVTVSS	high polyreactivity
QVQLVESGGGLVQAGGSLRLSCAASGSTFDYNAKGSYRQAPGKERELVAVISSSGGSTYYADSVKGRFTISRDIAMNTVYLQMNSLKPVDTAVYYCAALYRNYGSSYAYYYWGLGTQVTVSS	low polyreactivity
QVQLVESGGGLVQAGGSLRLSCAASGSTFDYNAMGWYRQAPGKERELVAAISARGTSTYYADSVKGRFTISRDNAKTTVYLQMNSLKPEDTAVYYCAARIHTAYYIFGYWGQGTQVTVSS	high polyreactivity
QVQLVESGGGLVQAGGSLRLSCAASGSTFDYNAMGWYRQAPGKERELVAAISWRGGGTYYADSVKGRFTISRDNAKNTVYLQMNSLKPEDTAVYYCNTVSRNGFYRSRHDYWGQGTQVTVSS	low polyreactivity
QVQLVESGGGLVQAGGSLRLSCAASGSTFDYYAMGWSRQAPGKERELVAAITGTGGSTYYADSEKGRFTISRNNAKNTVYLQMNSLKPEDTAVYYCNRVSGTRRHTMDYWGQGTQVTVSS	low polyreactivity
QVQLVESGGGLVQAGGSLRLSCAASGSTFDYYAMGWYRQAPGKERELVAAISGSGGSTYYADSVKGRITISRDNAKNTVYLQMNSLKPEDTAVYYCATVRSRLFGQYYYWGQGTQVTVSS	high polyreactivity
QVQLVESGGGLVQAGGSLRLSCAASGSTFDYYARGWYRQAPGKERELVAGISSSGGRTYYADSVKGRFTISRDNAKNTVYLQMNSLKPEDTAVYYCAARIRVRKHEAFDYWGQGTQVTVSS	low polyreactivity
QVQLVESGGGLVQAGGSLRLSCAASGSTFDYYDMGWYRQAPGKERELVAAISSGGDSTYYADSVKGRFTISRDNAKNTVYLQMNSLKPEDTAVYYCAAAVYYGQSVWYYYWGQGTQVTVSS	high polyreactivity
QVQLVESGGGLVQAGGSLRLSCAASGSTFDYYDMGWYRQAPGKERELVAAISYSGTSTYYADSVKGRFTISRDNAKNTVYLQMNSLKPEDTAVYYCAKVFPDWYWYDYWGQGTQVTVSS	low polyreactivity
QVQLVESGGGLVQAGGSLRLSCAASGSTFEDYAMGGYRQAPGKERELVAAISHIGGSTYYADSVKGRFTISRDNAKNTVYLQMNSLKPEDTAVYYCAKGGFSSKFDFWGQGTQVTVSS	low polyreactivity
QVQLVESGGGLVQAGGSLRLSCAASGSTFEDYAMGWYTQAPGKERELVAAINKTGGSTNYADSVKGRFTISRDNAKNTVYLQMNSLKPEDTAVYYCAADGSNYSASVAAFPYRVVYWGQGTQVTVSS	low polyreactivity
